Source: patent US7524668

Molecular target: recombinant soluble human beta-secretase from CHO-K1 cells (Hu_Asp-2LdeltaTM(His)6) (UniProt P56817)
Sequence (P56817 other isoform, or with tags, fused parts or gaps mutant): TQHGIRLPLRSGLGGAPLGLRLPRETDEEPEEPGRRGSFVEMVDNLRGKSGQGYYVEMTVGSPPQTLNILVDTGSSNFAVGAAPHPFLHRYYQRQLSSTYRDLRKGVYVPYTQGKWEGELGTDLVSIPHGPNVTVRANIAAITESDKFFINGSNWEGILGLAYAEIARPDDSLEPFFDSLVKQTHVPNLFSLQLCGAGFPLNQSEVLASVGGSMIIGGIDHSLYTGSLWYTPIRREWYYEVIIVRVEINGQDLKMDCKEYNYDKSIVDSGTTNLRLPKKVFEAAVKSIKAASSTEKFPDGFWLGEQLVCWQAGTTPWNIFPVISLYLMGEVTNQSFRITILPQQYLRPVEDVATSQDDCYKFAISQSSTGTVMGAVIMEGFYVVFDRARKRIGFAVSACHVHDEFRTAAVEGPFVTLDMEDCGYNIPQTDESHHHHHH

Substance: HIV-1 protease
- cleavage of the F39-V40 bond (N-terminal sequence after incubation; pH 5.7, 0.5 M urea, 5% HIV protease, 1 hour at 37 C): nearly 100% cleavage of the F^39-V^40 bond occurred
